Measurements as given in the DeepSol protein solubility set.

Assay: soluble on expression in E. coli; label from the status in PepcDB or PDB records
With “MSLKLSAREWKDFSLEELFTVRGTKTTPLIILRKNNKKREKQLPYVTTKSTYNGIDDFFSGFTEEGNVITIDSATDGYVFYQLNNFSASDHVEKLIPKFKLNKYIALFLVNCIKKATKCKYGYGYKFSQTRIKRQKIMLPASNNQPDFQFMERYIKEKHFNLKSRIKEKQNHEINDWRELDDVEWTPFSTSEVFNNIQRGKRLTKSNQIKGLTPYISSSGINNGLDNFISNNEKIREFDNCLTIANSGSVGSAFYHTYRFIASDHVTHLKNNNLNKFSYLFIANMLRRLEGKYSFNRGINDFRIKRERILLPTKNNRPEYEFMEQYMKRKENEILDRLEGHHHHHH” the “soluble on expression in E. coli” value was “not soluble”.
With “MGSDKIHHHHHHMKSLIHCLFLIPLFFVQAHAEVTITLPDSAEPLLLNGKDITSHQLISQNGPQQLVFNARASYREFGQQKRFVSETLIVTFSGENNHYRVSLPKISSPKSAEKFNDVPQIGLTDTQGNKVAYKIDKLLKDGIQIGRNYSEEIKAYNIGQGVAAIAINQPVQMAPSTSSSASSGAASPAATSTALAAQQTTAPQGAQPVGQPTSQPNTQPVSQTGTPRRDQINVGQMLDFWYEQADEATREAFKKRIGLIEQAQRDGH” the “soluble on expression in E. coli” value was “not soluble”.
In the case of “MSAPVADAPAAEIVYKIISSDGVVSKMSEKAVQQSKTLSNLIENLGYTIENIETRDPIPVTNVNGKTMAKVAELCEKHKADAIPEDNMNVLKTLTIPEWDQKFLKIEDEALFDLILASNFLDIKGLMYYGCKTVSNMAKGKTTAELREIFGINTDEQDAAEETAQKAAAEVA”, the “soluble on expression in E. coli” value is reported as “not soluble”.
In the case of “MVKHIWDSERAAQLPKGVEELVYRSNLIGSDRTVCNWGGGNTSMKTTEKDFRGREIEVMWVKGSGSDLATMKAHNFSGLKLDDIRPLIKRDQMPDEEMVDYLSHCMIDSKHPRPSIETLLHAFLPYKHVDHTHPDAIISICCADNGKQIAEDIYGNRFVWVPYVRPGFTLSKMIAEGVANNPHAELVLMEKHGLVTWGETSETCYQKTISIIQEAEQYINDRINQHEVFGGKRYQPLPEDKRKQILAGIMPVIRGAVSEEKKMILSYDDHDDVLEFVNSVQAPALSQIGAACPDHLVHTKRVPLYIDWNPETQDVHKLADLIKSGVETFTSEYQAYFTRNQQDGDQIFESAPRVILIPGIGMVNTGKSYAMSKVSGALYRRAIAVMKGATALGQFVSLHENESYHVEYWPLELYKLTLAPPEAEFSRKVALITGGAGGIGSAACRRFAAEGGHVIVADLNIEGAQKIAGEINDAYGKGRAMAVKMDVTKEEDVQSAFERAALAYGGIDIVVNNAGLATSSPFDETSLKEWNLNMNVLGTGYFLVAREAFKQMKHQNRGGSMVFVGSKNSVYAGKNASAYSSVKALETHLARCIAAEGGEFGIRVNSVLPDAVLQGSAIWGSSWREERAAAYGIEPDQLEEHYRKRTALLVNIYPEDIAEAIAFFASSKAEKTTGCMITVDGGVPAAFTR”, the “soluble on expression in E. coli” value is reported as “not soluble”.
For “MAHHHHHHMKGKGPIKIVLFGAPGVGKGTFAEILSKKENLKHINMGNILREEIKRKTTIGKEIDKVVTSGNLVGDDLIIRIVKDEIAKVTIQKDCYFKGFILDGFPRNLFQCNELAKITNIDLFINIYMPRHILIKKIMGRRICNDCNRNFNVVHIREDSYDMLPILPPQDCETCKGNPKLQTRSDDSEEIVAHRLNTYELTNSPLINFFKNSNCNFVDFEIKRGLQDFDSFYRIVSQNL”, the “soluble on expression in E. coli” value was “not soluble”.
In the case of “MSLIVTLPEPTGPYEIGVTNFHWVDPDREEVEGVNGNRELMVRIWYPAELTEGGLKAPYAFDPSYTELVSKELPYYYKALLYSVIQTETHSFANVPVADHGAPYPVLILSPGYGNSNFMYTSQAETLASHGYIVCSIEHTYYTGLPTLFPDGRIVYEQIDLEDGRDLDEEITVWVDDVQFVLDQLQKWNESDPQNLLNGRLDMDRVGMLGHSFGGATTAQVMHQDPRIRAGVNMDGFLFGSLIEEGLDYPFMYMSGVEEVSMEGPDGKKVEEAELPEEFREFIADDKRRKEGALKNNGLYVVIENAEHESFSDWMLYSPLLLDRDLPMLDQINKTLLDFFDEHLKEGHHHHHH”, the “soluble on expression in E. coli” value is reported as “soluble”.
With “MKENDLIPNVKVMIDVRNMNNISDTDGSPNDFTSIDTHELFNNKKILLISLPGAFTPTCSTKMIPGYEEEYDYFIKENNFDDIYCITNNDIYVLKSWFKSMDIKKIKYISDGNSSFTDSMNMLVDKSNFFMGMRPWRFVAIVENNILVKMFQEKDKQHNIQTDPYDISTVNNVKEFLKNNQL” the “soluble on expression in E. coli” value was “soluble”.
For “GPGSMDCWNTRRDSKEFQHEAVEMDSLQANCGAPNEQAFHDTLVSAAYQLRARQRDTNVSISKAEMEGLVVLTRELENFKQMMKRSEFTVEGTWRIVEDGGMVERFGQQLYAELLTRNPRLRVHFHGVDIEEQSKSLLRMVGTAVHFYQKPQLTVDMFTKAGARHRGYGVNAEVFVEMRNAFMRVFSEFVGTDVFEAVEEEWRKFWKYVLDLLVHGSESAEGERYGKMYEEKMLKTIQADFKLIMERQNKCDLRGQFVSVMYSKAIEMHEELSKFEALKDLRASARVLQAYIDIINNIHDKKLLDEYMRELGGRHTAYNVTVENLQAFTEPFLFTCRHFFEEEWNIAAESRFLWLFEYMIDGISAGMVSDINSIVNLRAPSNSVTFGLIFTDIEASTRLWSKDSKSMSLAVKSHHAMIRRLIADYGAYEVKTVGDSFIIATKDVLVAVKLSLAIQLELMRMAPIAPGFAMVDSTEGHGDPQAWDDRTLRVRIGVEHCTDATATYDTIHRRYDYYGASVNRCARIEAAACGGQILLCRESFEYLKSMPEFHNDPCPHFLRHVEIATPPPKVDSRGLDHFVVVSDVGLASFKGIAEPVHLLSLVPRCLAGRQFTEKFTKVSE”, the “soluble on expression in E. coli” value was “not soluble”.
With “MGSDKIHHHHHHMSLNKNLNDIEKSQLIELMHESLRIRSHFELFLWMQGKLQVFLPHEIMITAWGDFSLGVIYFNIVSPLPGIRSDKIASHEINQFLQNLFNYWLNHAKAPFTLAAADNILHDCEFSNKESSYYLKNMKSALVHAIKDHRGRHDCLYVLLSSNLSFPPASRPMLEALLPYIDSALRQIEHLPEQQPTLIKAEPEPKDESLNILSGRELEIMDWVTKGKTNQEIGMILDISAFTVKNHLQRIFKKLNVMNRAQAVAKFRK” the “soluble on expression in E. coli” value was “not soluble”.
For “MYEGLLIDIDYLLNVVKELKINFDKKIKTLNLLIERNIPIVLYTENNKEYVDTIMKYLKIKEPAIIVEGAQIYSPFDLSYEAVFPLSINTVCKLGNWAMDRKMDMSISTDKKVIDYSEWLKELRQVNYKNAGDKLPSAVKVDICMKNDDKRIELLNFIGKNNLECYAHMYLNHVACINSIVDKGNTLKYLANKKKWDIKKFAMIGDYSKDTSIFDEVGF”, the “soluble on expression in E. coli” value was “not soluble”.
In the case of “MYQAVVFFDLDGTLMQDDKTVAASSVRAIQQLRANHVLPVIATGRNVFEVQDVMTTTGIDSIVSANGSYVAYQGQFLSAHELDKELLTDITHFANRQQNALAYYNNAGFALSHRDALTTSNYRALRQTARVAPHFYEHQHINFLLTFDPLNAAQYRQRYRGRLHFVRNNPRALDTMQWGVSKAVGIQDILTKAHLTKVPTYAFGDQLNDIEMFRMIQTPIAMGNGHPQVKQLARYVTADNMHGGIAQGLQHFDLI”, the “soluble on expression in E. coli” value is reported as “not soluble”.
In the case of “MAEYLVPKSAVVFEEEIKKSRFITYLQHTEGLEDARAFWAKIKQEHPNARHHCWAAVAGKPTDSLQLGFSDDGEPAGTAGKPMLSALQGSQLGEISAVVVRYYGGILLGTGGLVRAYGNGVQQALKLIESEIKVERTLFKLDCDYGQLRLVQQLCEKYQVEILSQGFQANIHLILGISEKTIEAFSSELTEKSSGRLVIQLLEIGELEHHHHHH”, the “soluble on expression in E. coli” value is reported as “soluble”.
For “SNAENNQTTTTHSKVISHVFCTGTAKLGSVGPPIGLVDIGVSEVAYIFRVSLPGIEKNQDKIKCEIQREGRVCIQGVIPEIAIPSDTGCLYRMQVQQLCPPGPFSITFNLPGQVDPRLFSPNFRSDGIFEVVVVKLGVRIPTS”, the “soluble on expression in E. coli” value was “soluble”.
With “MSTNPFAILRLPESALRKSINQMGLMEQFSLSVLSNKTKHAVTMLPEVKNDVSITMTSSLELLLSNHSQDVDFIFEMDSHYPNVEIRQRFDNARCRFTQLSIPGFTVKHWIEHIVDVFCKNQGVALIFESIMRERFYELYEIIKNIKIVHLEPFSSQIQDYQRLTLFPSLEWLTVIGVDEAPIGTPILIQNFEGFIIFPNIQWKIDDVLISNFSNLRMWHRTFSVQDLNLFMRQWIKGSMPRLEEFDVILSHSNQHKLVETDLFKSIKYTVKENENCKINVIKRRDGAKASVCFGGKSSYEFHFTVESEPD” the “soluble on expression in E. coli” value was “not soluble”.
For “GPGSMSFSHFVPPISRRRMFFEDQLDEALSREGSPRLSTSNTVGGADLVAAGAANDETFPFPSHAAPGHLLKSLIQATENERCAPDILPYPEAIVDSVVAQIVAQNEQIRLLGTDERQKAAGSDSGVSLLPFKPSDIMALEVQRAQFFLCELLRCRLRKIEALALTINYESQSGAEAHTQLREHLSHNEIVVADRLAELISKCVRQAGLQSAPSELQQLVPNAPYAEGNEVLPIPDIDHYVFCVVLDDLGVVRLGDDAEQTVHAGEVFIVPYRTFRPYILEGRVRLV”, the “soluble on expression in E. coli” value was “not soluble”.
For “MPKNKGKGGKNRRRGKNDSEGDKRELVFKEEGQEYGQVQRMLGNGRLDAYCFDGQKRLCHIRGKMRKKVWVNPGDIVLVSLRDFQDSKGDIILKYTPDEARALKSKGEIPETTKINE”, the “soluble on expression in E. coli” value was “soluble”.
With “MGSDKIHHHHHHAGVVVPKYTPSTENPGGPGEEPGDGLIDPAEPLDRGFMHLKGRELKSLNSISITGLNDGEKVILSTLAGLAARVTGDQVYINEGGPSSVWLKQMQNKYGIPVNTYNALAPLVQHYVETGVIKGYIVYTPYSEGQSHSINVATSLCGLLRGIAVPESLVDKVKAMGVTTELMDVRSYDEKWLYENYKDQLDKSLAADMKPEIFHHLRDYITMTNAFAFYDYNARRDWSWRTSILKDLDKGAYCFGYYDLDEWGMVNNASQLGVSMLPTDQAANLATLSSIYDTTGLKQRPATKEVVTEENVHYVTFLVSDGDNIAFNLWGQQGYMDHDLHGQFPLGYTISPSLYDLAPAALRWYYENSKEGDYFVAGPSGSSYIFPSKMSDADLDDYLAKLNEYVDKSGLNICNILDQKIMDNPKVYNKYLAQPNIDAIFYTGYGEKGDGRIKFSDNGKPVIEQRSVLWEGIDGGSNRGEESTVISQINSRSANPHSADGYTFVFVHCWTKNQQSIKTVIDGLNDNVRVVPVDQFVQLVKQNLGPK” the “soluble on expression in E. coli” value was “not soluble”.
With “MGSDKIHHHHHHMPEPKQETDFTAPAFRWENQQLKAIYTPKNIYLDDLKGIERQKEKIIQNTLQFLNGLPANDVLLTGSRGTGKSSIVRALLTEYAPQGLRLIEIERDDLADLPKIQKIIQNRPEKYIVYCDDLAFNAEDENYRSLKSVLDGSLQSGSTNFIIYATSNRRHLLPEFMHENTPVTKVDVPQYTELHPQEAIEEKISLSDRFGLWLSFYPMDQNLYLEIVEHYLDKANMPFNDEVRAESLRWCQMRGQRSGRAAYQFSKHWIGLNALKDLSNN” the “soluble on expression in E. coli” value was “not soluble”.
For “MPSPTVTSPQVAVNDIGSSEDFLAAIDKTIKYFNDGDIVEGTIVKVDRDEVLLDIGYKTEGVIPARELSIKHDVDPNEVVSVGDEVEALVLTKEDKEGRLILSKKRAQYERAWGTIEALKEKDEAVKGTVIEVVKGGLILDIGLRGFLPASLVEMRRVRDLQPYIGKEIEAKIIELDKNRNNVVLSRRAWLEQTQSEVRSEFLNNLQKGTIRKGVVSSIVNFGAFVDLGGVDGLVHVSELSWKHIDHPSEVVQVGDEVTVEVLDVDMDRERVSLSLKATQEDPWRHFARTHAIGQIVPGKVTKLVPFGAFVRVEEGIEGLVHISELAERHVEVPDQVVAVGDDAMVKVIDIDLERRRISLSLKQANEDYTEEFDPAKYGMADSYDEQGNYIFPEGFDAETNEWLEGFEKQRAEWEARYAEAERRHKMHTAQMEKFAAAETAGRGADDQSSASSAPSEKTAGGSLASDAQLAALREKLAGSALEHHHHHH”, the “soluble on expression in E. coli” value was “not soluble”.
